The values below come from paper PMC3118927.

Assay in all cases: EMSA
Data set [1] has as its target T1, Exd (Extradenticle);Ubx (Drosophila melanogaster?;Drosophila …, UniProt P40427;P83949 1-376;56-389, |).
Data set [2] has as its target T1, Exd (Extradenticle);Ubx. The source holds these as a separate data set.
Data set [3] concerns the target T1, Exd (Extradenticle);Ubx. The source holds these as a separate data set.

Substitutions are numbered along the chain they refer to. Read-outs that look alike come from different tables or passages of the source.

T1 sequence (P40427 whole entry, chain 1 of 2): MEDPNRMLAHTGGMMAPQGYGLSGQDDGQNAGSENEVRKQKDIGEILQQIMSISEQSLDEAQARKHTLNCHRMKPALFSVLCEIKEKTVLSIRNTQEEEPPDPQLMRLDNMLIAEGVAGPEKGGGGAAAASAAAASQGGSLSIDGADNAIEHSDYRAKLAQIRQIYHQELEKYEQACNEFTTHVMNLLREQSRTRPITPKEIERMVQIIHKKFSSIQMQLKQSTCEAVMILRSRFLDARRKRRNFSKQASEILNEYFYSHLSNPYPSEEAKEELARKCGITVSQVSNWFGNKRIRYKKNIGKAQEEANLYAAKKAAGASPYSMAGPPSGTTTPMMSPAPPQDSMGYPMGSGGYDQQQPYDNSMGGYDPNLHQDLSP
T1 sequence (P83949 56-389, chain 2 of 2): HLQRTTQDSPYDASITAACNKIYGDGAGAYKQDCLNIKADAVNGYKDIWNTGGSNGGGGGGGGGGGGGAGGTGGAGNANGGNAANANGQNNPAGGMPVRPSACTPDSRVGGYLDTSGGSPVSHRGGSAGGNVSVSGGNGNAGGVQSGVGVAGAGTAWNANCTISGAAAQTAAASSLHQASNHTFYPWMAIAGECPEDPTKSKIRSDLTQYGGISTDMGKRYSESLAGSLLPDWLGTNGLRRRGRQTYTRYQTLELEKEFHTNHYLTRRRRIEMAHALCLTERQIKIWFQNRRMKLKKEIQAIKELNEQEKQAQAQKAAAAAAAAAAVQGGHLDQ

B1: PrFHOX (dsDNA)
DNA 1: TGATGGCTTCCCTTATGATTTTTTGAATAATTTCTTTA
DNA 2: TATAAAGAAATTATTCAAAAAATCATAAGGGAAGCCAT
As to B1, the binding result with Exd (Extradenticle);Ubx [1] is reported as “no binding”.

B2: PrFEXD (dsDNA)
DNA 1: B1 DNA 1 with G17A, A18G, T22A
DNA 2: B1 DNA 2 with A19T, T23C, C24T
B2: the binding result in the data set with Exd (Extradenticle);Ubx [1] is “no binding”.

B3: PrFWT (dsDNA)
DNA 1: B1 DNA 1 with T22A
DNA 2: B1 DNA 2 with A19T
B3: the binding result with Exd (Extradenticle);Ubx [2] is recorded as “binds”.

B4: fkh[250con] (dsDNA)
DNA 1: GATCTCAATGTCAAGATTTATGGCCAGCTGTGGGACGA
DNA 2: CCTCGTCCCACAGCTGGCCATAAATCTTGACATTGAGA
Regarding B4, the binding result in the data set with Exd (Extradenticle);Ubx [3] is on record as “binds”.
